Reference: patent US20180244777A1 (NUMAB THERAPEUTICS, published 2018)
Like-named read-outs stand apart in the source and are kept apart here. Values belong to the binder of their own block, whether it stands above or below them.

Columns and labels:
mouse CD3ε [1] = target: T1, mouse CD3ε (mouse, UniProt P22646 22-108, limits assumed); test: SPR
mouse IL23R [2] = target: T2, mouse IL23R (mouse, UniProt Q8K4B4 24-374, limits assumed); test: SPR
T2 sequence (looked up): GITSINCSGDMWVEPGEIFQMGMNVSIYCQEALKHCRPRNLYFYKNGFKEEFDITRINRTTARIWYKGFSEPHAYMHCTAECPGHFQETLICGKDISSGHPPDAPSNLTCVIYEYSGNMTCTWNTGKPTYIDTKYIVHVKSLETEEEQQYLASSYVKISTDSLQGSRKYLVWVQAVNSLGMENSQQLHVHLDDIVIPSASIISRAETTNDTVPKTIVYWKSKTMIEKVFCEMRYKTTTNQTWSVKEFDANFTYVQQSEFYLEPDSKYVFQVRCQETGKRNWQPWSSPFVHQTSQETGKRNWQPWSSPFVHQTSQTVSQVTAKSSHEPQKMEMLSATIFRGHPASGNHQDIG

[3] = target: T3, cynomolgus monkey heterodimeric single-chain CD3εγ extracellular domain (cynomolgus monkey, UniProt Q95LI5 22-117; Q95LI7 23-113); test: SPR; ratio of the KDs for cyno and human single-chain CD3εγ
T3 sequence (Q95LI7 other isoform, or with tags, fused parts or gaps): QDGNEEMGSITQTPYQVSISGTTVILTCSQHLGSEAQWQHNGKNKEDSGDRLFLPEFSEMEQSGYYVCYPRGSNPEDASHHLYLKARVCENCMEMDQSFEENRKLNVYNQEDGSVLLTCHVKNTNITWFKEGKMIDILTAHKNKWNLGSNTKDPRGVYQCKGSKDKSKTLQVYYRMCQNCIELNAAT

[4] = target: T3, cynomolgus monkey heterodimeric …; test: SPR, rabbit IgG captured, cyno single-chain CD3εγ ECD injected
[5] = target: T4, human CD3ε expressed on the cell surface of T cells (Jurkat cells; human CD8+ T cells) (human, UniProt P07766 23-207); test: cell-based ELISA on Jurkat cells, CD3ε-deficient Jurkat subtracted
T4 construct: whole, on cells; also called native CD3ε embedded in the TCR complex on Jurkat cells
Description: (§1) Jurkat cells (clone E6-1), a human T cell line, were seeded at 300,000 cells/well in round bottom 96-well plates in 100 μl phosphate-buffered saline (PBS) containing 10% FBS. Five-fold serial dilutions of anti-CD3 rabbit monoclonal antibodies ranging from 90 nM to 0.0058 nM were added to the plates in 100 μl PBS containing 10% FBS. […] This secondary antibody was linked to the enzyme horseradish peroxidase (HRP). HRP activity was measured by addition of TMB substrate (3,3′,5,5′-tetramethylbenzidine, KPL, Cat. No. 53-00-00), which in a colorimetric reaction is processed by the HRP. The color intensity of the processed substrate is directly proportional to the amount of anti-CD3 antibody bound to Jurkat cells. To quantify color intensity, light absorbance (optical density) at the respective wave length was measured using a microtiter plate reader (Infinity reader M200 Pro, Tecan).
(§2) To correct for unspecific binding of the antibodies to unknown components presented on the cell surface of Jurkat cells, a CD3ε deficient derivative of the Jurkat T cell line (J.RT3-T3.5) was used. Binding of the monoclonal antibodies to this cell line was measured as described above for the Jurkat cells. For quantification of specific binding to Jurkat cells, the optical density for binding to the negative control was subtracted from the optical density for binding to Jurkat cells. Data were analyzed using a four-parameter logistic curve fit using the Softmax Data Analysis Software (Molecular Devices), and the molar concentration of anti-CD3 antibody required to reach 50% binding (EC₅₀, mid-OD of the standard curve) was derived from dose response curves.

[6] = target: T4, human CD3ε expressed on the cell …; test: cell-based or functional assay
[7] = target: T5, linear 15mer peptide derived from cynomolgus CD3ε residues 2-16 (wild type of the substitution library, Set 2) (cynomolgus); test: 15mer peptide array ELISA
T5 construct: Probed as a saturation mutagenesis library on a peptide array
T5 peptide: DGNEEMGSITQTPYQ

[8] = target: T6, linear 15mer peptide derived from human CD3ε residues 2-16 (wild type of the substitution library, Set 1) (human); test: 15mer peptide array ELISA
T6 construct: Probed as a saturation mutagenesis library on a peptide array
T6 peptide: DGNEEMGGITQTPYK

[9] = target: T7, human heterodimeric single-chain CD3εγ extracellular domain (human, UniProt P07766 23-126; P09693 23-116); test: SPR, rabbit IgG captured, human single-chain CD3εγ ECD injected
T7 construct: extracellular domain; Produced in-house; also called scCD3γε; human CD3ge
Description: (§3) Binding affinities of monoclonal rabbit anti-CD3 antibodies were measured by surface plasmon resonance (SPR) using a MASS-1 SPR instrument (Sierra Sensors). […] Rabbit monoclonal antibodies were captured by the immobilized anti-rabbit IgG antibody. Two-fold serial dilutions of human heterodimeric single-chain CD3εγ extracellular domain (produced in-house) ranging from 90 to 2.81 nM were injected into the flow cells for 3 min and dissociation of the protein from the IgG captured on the sensor chip was allowed to proceed for 5 min. After each injection cycle, surfaces were regenerated with two injections of 10 mM glycine-HCl. The apparent dissociation (kd) and association (ka) rate constants and the apparent dissociation equilibrium constant (KD) were calculated with the MASS-1 analysis software (Analyzer, Sierra Sensors) using one-to-one Langmuir binding model.

[10] = target: T8, linear 15mer peptides derived from cynomolgus CD3ε residues 5-20 (Set 4) (cynomolgus); test: peptide array ELISA, Set 4
T8 construct: also called peptides spanning residues 5-20
T8 peptide: EEMGSITQTPYQVSIS
Description: (§4) The binding of the antibodies to each of the synthesized peptides was tested by ELISA. The peptide arrays were incubated with primary antibody solution (overnight at 4° C.). After washing, the peptide arrays were incubated with a 1/1000 dilution of an antibody peroxidase conjugate (SBA, cat.nr.2010-05) for one hour at 25° C. After washing, the peroxidase substrate 2,2′-azino-di-3-ethylbenzthiazoline sulfonate (ABTS) and 2 μl/ml of 3% H₂O₂ were added. After one hour, the color development was measured. The color development was quantified with a charge coupled device (CCD)—camera and an image processing system.

[11] = target: T9, linear 15mer peptides derived from human CD3ε residues 5-20 (Set 3) (human); test: peptide array ELISA, Set 3
T9 construct: also called peptides spanning residues 5-20
T9 peptide: EEMGGITQTPYKVSIS
Description: as §4

mouse CD3ε [12] = target: T1, mouse CD3ε; test: SPR; remark: listed apart in the source
mouse IL23R [13] = target: T2, mouse IL23R; test: SPR; remark: listed apart in the source
[14] = target: T4, human CD3ε expressed on the cell …; test: cell-based ELISA on Jurkat cells
Description: as §1, §2

[15] = target: T10, cynomolgus monkey CD3ε expressed on the surface of HSC-F T cells (cynomolgus monkey, UniProt Q95LI5 22-198); test: cell-based ELISA on cyno HSC-F T cells
T10 construct: whole, on cells; also called cyno HSC-F T cells
T10 sequence (Q95LI5 22-198): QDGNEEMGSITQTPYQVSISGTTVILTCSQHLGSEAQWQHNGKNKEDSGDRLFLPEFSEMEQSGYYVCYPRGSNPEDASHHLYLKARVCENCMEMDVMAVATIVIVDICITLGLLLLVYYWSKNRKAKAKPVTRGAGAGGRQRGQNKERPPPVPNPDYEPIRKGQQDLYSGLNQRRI

[16] = target: T3, cynomolgus monkey heterodimeric …; test: SPR, rabbit IgG captured, cyno single-chain CD3εγ ECD injected; remark: listed apart in the source
[17] = target: T7, human heterodimeric single-chain CD3εγ …; test: SPR, rabbit IgG captured, human single-chain CD3εγ ECD injected; remark: listed apart in the source
Description: as §3

T1 sequence (P22646 22-108 limits assumed): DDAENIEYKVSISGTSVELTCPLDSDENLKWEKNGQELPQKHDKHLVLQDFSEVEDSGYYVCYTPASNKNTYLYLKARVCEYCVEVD

Kd (mouse CD3ε [1]): 11.5 nM
koff (mouse CD3ε [1]): 0.00196 s⁻¹
kon (mouse CD3ε [1]): 171000 M⁻¹ s⁻¹
Kd (mouse IL23R [2]): 0.583 nM
koff (mouse IL23R [2]): 0.000533 s⁻¹
kon (mouse IL23R [2]): 915000 M⁻¹ s⁻¹
B1: PRO386 (bispecific antibody)
light: DIQMTQSPSSLPASLGDRVTINCQASQDISNYLNWYQQKPGKAPKLLIYYTNKLADGVPSRFSGSGSGRDSSFTISSLESEDIGSYYCQQYYNYPWTFGPGTKLEIKRRTVAAPSVFIFPPSDEQLKSGTASVVCLLNNFYPREAKVQWKVDNALQSGNSQESVTEQDSKDSTYSLSSTLTLSKADYEKHKVYACEVTHQGLSSPVTKSFNRGECGGGGSGGGGSHMDIQMTQSPSSLSASVGDRVTITCQASENIYSFLAWYQQKPGKAPKLLIYSASKLAAGVPSRFSGSGSGTDFTLTISSLQPEDFATYYCQQTNRYSNPDIYNVFGQGTKLTVLGGGGGSGGGGSGGGGSGGGGSEVQLVESGGGLVQPGGSLRLSCAASGIDFNSNYYMCWVRQAPGKGLEWIGCIYVGSHVNTYYANWAKGRFTISRDNSKNTVYLQMNSLRAEDTAVYYCATSGSSVLYFKFWGQGTLVTVSS
heavy: EVQLVESGGGLVQPGKSLKLSCEASGFTFSGYGMHWVRQAPGRGLESVAYITSSSINIKYADAVKGRFTVSRDNAKNLLFLQMNILKSEDTAMYYCARFDWDKNYWGQGTMVTVSSASTKGPSVFPLAPSSKSTSGGTAALGCLVKDYFPEPVTVSWNSGALTSGVHTFPAVLQSSGLYSLSSVVTVPSSSLGTQTYICNVNHKPSNTKVDKKVEPKSCGGGGSGGGGSHMDIQMTQSPSSLSASVGDRVTITCQASENIYSFLAWYQQKPGKAPKLLIYSASKLAAGVPSRFSGSGSGTDFTLTISSLQPEDFATYYCQQTNRYSNPDIYNVFGQGTKLTVLGGGGGSGGGGSGGGGSGGGGSEVQLVESGGGLVQPGGSLRLSCAASGIDFNSNYYMCWVRQAPGKGLEWIGCIYVGSHVNTYYANWAKGRFTISRDNSKNTVYLQMNSLRAEDTAVYYCATSGSSVLYFKFWGQGTLVTVSS
notes: Heterodimer; 2C11 Fab with an anti-IL23R scFv 14-11-D07-sc01 on the C-terminus of each chain; also called Tribody; bispecific, trivalent Fab-scFv fusion surrogate molecule

KD (human)/KD (cyno) [3]: 36
Kd [4]: 4.12 nM
koff [4]: 0.00266 s⁻¹
kon [4]: 646000 M⁻¹ s⁻¹
EC50 [5]: 1.87 nM
Fold increase in CD69 expression [MFI normalized to neg. ctrl.], 1.25 µg/ml anti-CD3 IgG [6]: 2.6 fold
Fold increase in CD69 expression [MFI normalized to neg. ctrl.], 5 µg/ml anti-CD3 IgG [6]: 3.5 fold
Fold increase in CD69 expression [MFI normalized to neg. ctrl.], 20 µg/ml anti-CD3 IgG [6]: 7.8 fold
binding result [7]: binds
binding result [8]: binds
Kd [9]: 0.113 nM
koff [9]: 9.88e-05 s⁻¹
kon [9]: 873000 M⁻¹ s⁻¹
binding result [10]: no binding
binding result [11]: no binding
B2: clone-04 (antibody, V domains shown)
VH: QSLEESGGRLVKPDETLTLTCTVSGFPLSSYAMGWFRQAPGKGLEWIGMILRSDNTYYASWAKGRFTISKTSTTVDLKITSPTTEDTATYFCARRHYNASGNPIAIGDLWGPGTLVTVSS
VL: AQVLTQTPSSVSAAVGGTVTINCQSSQSVYNNNRLSWFQQKPGQPPKLLIYTTSSLASGVPSRFKGSGSGTEFTLTISDLECADAATYYCQGEFSCSRADCFNFGGGTEVVVKG
notes: Recombinant rabbit IgG; also called Clone 4

Kd (mouse CD3ε [1]): 11.4 nM
koff (mouse CD3ε [1]): 0.00266 s⁻¹
kon (mouse CD3ε [1]): 233000 M⁻¹ s⁻¹
B3: PRO400 (Fab, V domains shown)
VH: EVQLVESGGGLVQPGKSLKLSCEASGFTFSGYGMHWVRQAPGRGLESVAYITSSSINIKYADAVKGRFTVSRDNAKNLLFLQMNILKSEDTAMYYCARFDWDKNYWGQGTMVTVSS
VL: DIQMTQSPSSLPASLGDRVTINCQASQDISNYLNWYQQKPGKAPKLLIYYTNKLADGVPSRFSGSGSGRDSSFTISSLESEDIGSYYCQQYYNYPWTFGPGTKLEIKR
notes: Chimeric Fab: hamster 2C11 variable domains with human CL and CH1; also called anti-mCD3 Fab; 2C11 Fab

Kd (mouse CD3ε [12]): 9.11 nM
koff (mouse CD3ε [12]): 0.00213 s⁻¹
kon (mouse CD3ε [12]): 233000 M⁻¹ s⁻¹
Kd (mouse IL23R [13]): 4.66 nM
koff (mouse IL23R [13]): 0.00326 s⁻¹
kon (mouse IL23R [13]): 701000 M⁻¹ s⁻¹
B4: PRO387 (bispecific antibody)
chain: DIQMTQSPSSLSASVGDRVTITCQASENIYSFLAWYQQKPGKAPKLLIYSASKLAAGVPSRFSGSGSGTDFTLTISSLQPEDFATYYCQQTNRYSNPDIYNVFGQGTKLTVLGGGGGSEVQLVESGGGLVQPGKSLKLSCEASGFTFSGYGMHWVRQAPGRGLESVAYITSSSINIKYADAVKGRFTVSRDNAKNLLFLQMNILKSEDTAMYYCARFDWDKNYWGQGTMVTVSSGGGGSGGGGSGGGGSGGGGSDIQMTQSPSSLPASLGDRVTINCQASQDISNYLNWYQQKPGKAPKLLIYYTNKLADGVPSRFSGSGSGRDSSFTISSLESEDIGSYYCQQYYNYPWTFGPGTKLEIKRGGGGSEVQLVESGGGLVQPGGSLRLSCAASGIDFNSNYYMCWVRQAPGKGLEWIGCIYVGSHVNTYYANWAKGRFTISRDNSKNTVYLQMNSLRAEDTAVYYCATSGSSVLYFKFWGQGTLVTVSS
notes: scDb VLA-L1-VHB-L2-VLB-L3-VHA, A = anti-IL23R, B = anti-mouse CD3ε 2C11; also called bispecific single-chain diabody surrogate (scDb); anti-IL23R 14-11-D07-sc01 × anti-mCD3 2C11

KD (human)/KD (cyno) [3]: 13
Kd [4]: 3.86 nM
koff [4]: 0.00258 s⁻¹
kon [4]: 668000 M⁻¹ s⁻¹
EC50 [14]: 0.71 nM
EC50 [15]: 3.82 nM
EC50 [5]: 0.71 nM
Kd [16]: 3.86 nM
Fold increase in CD69 expression [MFI normalized to neg. ctrl.], 1.25 µg/ml anti-CD3 IgG [6]: 3.3 fold
Fold increase in CD69 expression [MFI normalized to neg. ctrl.], 5 µg/ml anti-CD3 IgG [6]: 4.6 fold
Fold increase in CD69 expression [MFI normalized to neg. ctrl.], 20 µg/ml anti-CD3 IgG [6]: 7.4 fold
binding result [7]: binds
binding result [8]: binds
Kd [9]: 0.304 nM
koff [9]: 0.000264 s⁻¹
kon [9]: 869000 M⁻¹ s⁻¹
binding result [10]: no binding
Kd [17]: 0.304 nM
binding result [11]: no binding
B5: clone-02 (antibody, V domains shown)
VH: QSLEESGGRLVTPGTPLTLTCTVSGFPLSAYAMIWVRQAPGKGLEWIGMIIRSGTVYYANWAKGRFTISKTSTTVDLKITSPTTEDTATYFCARRHYNADGYPIGIGDLWGPGTLVTVSS
VL: AQVLTQTPSSVSAVVGGTVTISCQSSESVYSNNRLSWFQQKPGQPPKLLIYSASTLASGVPSRFKGSGSGTQFTLTITDLECDDAATYFCQGEFSCSSVDCFSFGGGTEVVVKG
notes: Recombinant rabbit IgG; also called Clone 2
